{"source": "paper PMC6986101", "about": "“The mitochondrial HSP90 paralog TRAP1 forms an OXPHOS-regulated tetramer and is involved in mitochondrial metabolic homeostasis” (BMC Biology, 2020)", "proteins": {"B1": {"name": "endogenous TRAP1 (natural protein, human (endogenous in HEK293T), UniProt Q12931 60-704, looked up)", "chain": "STQTAEDKEEPLHSIISSTESVQGSTSKHEFQAETKKLLDIVARSLYSEKEVFIRELISNASDALEKLRHKLVSDGQALPEMEIHLQTNAEKGTITIQDTGIGMTQEELVSNLGTIARSGSKAFLDALQNQAEASSKIIGQFGVGFYSAFMVADRVEVYSRSAAPGSLGYQWLSDGSGVFEIAEASGVRTGTKIIIHLKSDCKEFSSEARVRDVVTKYSNFVSFPLYLNGRRMNTLQAIWMMDPKDVREWQHEEFYRYVAQAHDKPRYTLHYKTDAPLNIRSIFYVPDMKPSMFDVSRELGSSVALYSRKVLIQTKATDILPKWLRFIRGVVDSEDIPLNLSRELLQESALIRKLRDVLQQRLIKFFIDQSKKDAEKYAKFFEDYGLFMREGIVTATEQEVKEDIAKLLRYESSALPSGQLTSLSEYASRMRAGTRNIYYLCAPNRHLAEHSPYYEAMKKKDTEVLFCFEQFDELTLLHLREFDKKKLISVETDIVVDHYKEEKFEDRSPAAECLSEKETEELMAWMRNVLGSRVTNVKVTLRLDTHPAMVTVLEMGAARHFLRMQQLAKTQEERAQLLQPTLEINPRHALIKKLNQLRASEPGLAQLLVDQIYENAMIAAGLVDDPRAMVGRLNELLVKALERH", "notes": "also called endogenous mitochondrial TRAP1; wild-type (WT) endogenous TRAP1; source: endogenous, mitochondrial extracts of HEK293T cells (also MCF-7, MDA-MB-134, PC3 and HCT116 cells)"}, "B2": {"name": "recombinant human TRAP1 (natural protein, UniProt Q12931 60-704, looked up)", "chain": "STQTAEDKEEPLHSIISSTESVQGSTSKHEFQAETKKLLDIVARSLYSEKEVFIRELISNASDALEKLRHKLVSDGQALPEMEIHLQTNAEKGTITIQDTGIGMTQEELVSNLGTIARSGSKAFLDALQNQAEASSKIIGQFGVGFYSAFMVADRVEVYSRSAAPGSLGYQWLSDGSGVFEIAEASGVRTGTKIIIHLKSDCKEFSSEARVRDVVTKYSNFVSFPLYLNGRRMNTLQAIWMMDPKDVREWQHEEFYRYVAQAHDKPRYTLHYKTDAPLNIRSIFYVPDMKPSMFDVSRELGSSVALYSRKVLIQTKATDILPKWLRFIRGVVDSEDIPLNLSRELLQESALIRKLRDVLQQRLIKFFIDQSKKDAEKYAKFFEDYGLFMREGIVTATEQEVKEDIAKLLRYESSALPSGQLTSLSEYASRMRAGTRNIYYLCAPNRHLAEHSPYYEAMKKKDTEVLFCFEQFDELTLLHLREFDKKKLISVETDIVVDHYKEEKFEDRSPAAECLSEKETEELMAWMRNVLGSRVTNVKVTLRLDTHPAMVTVLEMGAARHFLRMQQLAKTQEERAQLLQPTLEINPRHALIKKLNQLRASEPGLAQLLVDQIYENAMIAAGLVDDPRAMVGRLNELLVKALERH", "notes": "TRAP1, human, recombinant; probably without the MTS (surmise); Same material used for blue native PAGE and cryo-EM; also called purified recombinant TRAP1"}, "B3": {"name": "TRAP1-GST fusion protein (natural protein, human, UniProt Q12931 60-704, looked up)", "chain": "STQTAEDKEEPLHSIISSTESVQGSTSKHEFQAETKKLLDIVARSLYSEKEVFIRELISNASDALEKLRHKLVSDGQALPEMEIHLQTNAEKGTITIQDTGIGMTQEELVSNLGTIARSGSKAFLDALQNQAEASSKIIGQFGVGFYSAFMVADRVEVYSRSAAPGSLGYQWLSDGSGVFEIAEASGVRTGTKIIIHLKSDCKEFSSEARVRDVVTKYSNFVSFPLYLNGRRMNTLQAIWMMDPKDVREWQHEEFYRYVAQAHDKPRYTLHYKTDAPLNIRSIFYVPDMKPSMFDVSRELGSSVALYSRKVLIQTKATDILPKWLRFIRGVVDSEDIPLNLSRELLQESALIRKLRDVLQQRLIKFFIDQSKKDAEKYAKFFEDYGLFMREGIVTATEQEVKEDIAKLLRYESSALPSGQLTSLSEYASRMRAGTRNIYYLCAPNRHLAEHSPYYEAMKKKDTEVLFCFEQFDELTLLHLREFDKKKLISVETDIVVDHYKEEKFEDRSPAAECLSEKETEELMAWMRNVLGSRVTNVKVTLRLDTHPAMVTVLEMGAARHFLRMQQLAKTQEERAQLLQPTLEINPRHALIKKLNQLRASEPGLAQLLVDQIYENAMIAAGLVDDPRAMVGRLNELLVKALERH", "notes": "TRAP1, human; the MTS is cleaved off upon import; Called one of the 'full-length TRAP1 proteins with different tags'; source: HEK293T, transfected, pulled down from mitochondrial lysate on glutathione beads and eluted with glutathione; not shown: GST, C-terminal, kept"}}, "key": {"[1]": {"molecular_target": "the molecule itself", "assay": "native gel or EMSA; clear native PAGE (6% or 8% Tris-glycine, 4 °C) of 30 μg mitochondrial extract, immunoblot with anti-TRAP1; cells also treated with hypoxia, oligomycin, rotenone, antimycin A or LDHi, or grown on different carbon sources"}, "[2]": {"molecular_target": "the molecule itself", "assay": "native gel or EMSA; blue native PAGE (3-12%) of purified recombinant TRAP1 (20 and 5 ng), immunoblot with anti-TRAP1"}, "[3]": {"molecular_target": "the molecule itself", "assay": "affinity purification with mass spectrometry + native gel or EMSA; glutathione bead pull-down of TRAP1-GST from 1 mg mitochondrial lysate of transfected HEK293T cells, elution with 80 mM glutathione, 6% clear native gel, the stained complex band excised and analysed by LC/MS/MS; cutoff 11 unique peptides, GST alone as control"}}, "data": [{"protein": "B1", "values": [{"measurement": "stoichiometry N", "setting": "[1]", "value": 4}]}, {"protein": "B2", "values": [{"measurement": "stoichiometry N", "setting": "[2]", "value": 4}]}, {"protein": "B3", "values": [{"measurement": "stoichiometry N", "setting": "[3]", "value": 4}]}]}
